Where two headings read alike, the source gives them in different places.
Assays:
[1] = target: T1, putrescine monooxygenase (SpPMO) (Shewanella putrefaciens, UniProt A0A4D6BRL2); assay: Csaky iodine oxidation product-formation assay with […] enzyme; Lineweaver-Burk plots; assay type: biochemical
T1 construct: gene pubA
T1 sequence (A0A4D6BRL2 1-505): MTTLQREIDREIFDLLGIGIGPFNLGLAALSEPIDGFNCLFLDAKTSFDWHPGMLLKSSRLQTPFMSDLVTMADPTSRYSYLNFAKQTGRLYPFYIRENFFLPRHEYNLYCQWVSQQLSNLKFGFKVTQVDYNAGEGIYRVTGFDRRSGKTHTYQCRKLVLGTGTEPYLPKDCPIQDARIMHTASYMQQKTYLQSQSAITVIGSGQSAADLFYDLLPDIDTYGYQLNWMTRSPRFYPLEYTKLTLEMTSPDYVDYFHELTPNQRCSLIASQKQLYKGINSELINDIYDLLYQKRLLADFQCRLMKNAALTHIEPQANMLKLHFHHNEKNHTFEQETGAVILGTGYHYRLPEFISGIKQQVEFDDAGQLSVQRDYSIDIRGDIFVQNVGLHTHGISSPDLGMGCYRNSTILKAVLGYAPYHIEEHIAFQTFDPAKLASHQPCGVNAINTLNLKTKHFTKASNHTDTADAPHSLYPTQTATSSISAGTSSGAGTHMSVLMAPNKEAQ

[2] = substrate: NCCCCN; assay: Michaelis-Menten kinetics, N-hydroxyl putrescine formation by Csaky iodine oxidation assay (Km); assay type: biochemical, Shewanella putrefaciens; conditions: FAD
[3] = NADPH putrescine binding pocket: Pro22, Phe23, Gly26, Leu399, Gly402 and Asn406 (docking)

## COc1cc(/C=C/C(=O)CC(=O)/C=C/c2ccc(O)c(OC)c2)ccc1O [curcumin]
[1]
  Ki: 2.6 ± 0.0036 µM

## C[C@@H]1O[C@@H](Oc2ccc(CC#N)cc2)[C@H](O)[C@H](O)[C@H]1O [niazirin]
[1]; read-out: Ki
  Ki: 18.38 ± 0.008 µM

B1: putrescine monooxygenase (SpPMO) (Shewanella putrefaciens) (protein)
chain: MTTLQREIDREIFDLLGIGIGPFNLGLAALSEPIDGFNCLFLDAKTSFDWHPGMLLKSSRLQTPFMSDLVTMADPTSRYSYLNFAKQTGRLYPFYIRENFFLPRHEYNLYCQWVSQQLSNLKFGFKVTQVDYNAGEGIYRVTGFDRRSGKTHTYQCRKLVLGTGTEPYLPKDCPIQDARIMHTASYMQQKTYLQSQSAITVIGSGQSAADLFYDLLPDIDTYGYQLNWMTRSPRFYPLEYTKLTLEMTSPDYVDYFHELTPNQRCSLIASQKQLYKGINSELINDIYDLLYQKRLLADFQCRLMKNAALTHIEPQANMLKLHFHHNEKNHTFEQETGAVILGTGYHYRLPEFISGIKQQVEFDDAGQLSVQRDYSIDIRGDIFVQNVGLHTHGISSPDLGMGCYRNSTILKAVLGYAPYHIEEHIAFQTFDPAKLASHQPCGVNAINTLNLKTKHFTKASNHTDTADAPHSLYPTQTATSSISAGTSSGAGTHMSVLMAPNKEAQ
[2]; NADPH
  Km: 3.81 µM
[2]; [3]
  Vmax: 0.246 µmol/min/mg
  kcat: 0.237 s⁻¹

Reference: PMC9005580, “In silico structural, phylogenetic and drug target analysis of putrescine monooxygenase from Shewanella putrefaciens-95” (Journal of Genetic Engineering & Biotechnology, 2022)
